# Reference: the nanobody polyreactivity screen of Harvey et al. (2022)
# Assay: yeast display, Sf9 membrane polyspecificity reagent, FACS + sequencing; frameworks hold sequencing errors
# Procedure, shortened: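 After 36–48 hours of galactose induction, yeast (Saccharomyces cerevisiae BJ5465) displaying a synthetic nanobody library were stained at 4 °C for 1 hour with 10% biotinylated, detergent-solubilized Sf9 membrane reagent. Streptavidin microbeads enriched the stained cells before FACS sorting into low and high (top ~1%) gates on anti-HA and streptavidin fluorescence. Each clone's polyreactivity label reflects its gate of origin.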
row,Sequence,polyreactivity (PSR sort gate)
1,QVQLVESGGGLVQAGGSLRLSCAASGSIFDLYDMGWYRQAPGKERELVADISFSGGSTFYADSVKGRFTISRDNAKNTVYLQMNSLKPEDTAVYYCAADAALITDYGWADMYYWGQGTQVTVSS,low polyreactivity
2,QVQLVESGGGLVQAGGSLRLSCAASGSIFDNNAMGSYRQAPGKERELVAGINWDDGSTYYADSVKGRFTISRDNAKNTVHLQMISLKPEETAVYYCARDVYVYRWNDFWAVWTWYDYWGQGTQVTVSS,low polyreactivity
3,QVQLVESGGGLVQAGGSLRLSCAASGSIFDNNAMGWYRQAPGKERELVAVITRSGGSTHYADSVKGRFTISRDNAKNTVYLQMNSLKPEDTAVYYCATDGLFYVDGSWTLGYWGQGTQVTVSS,low polyreactivity
4,QVQLVESGGGLVQAGGSLRLSCAASGSIFDNNSMGWYRQAPGKERELVAAIDWSDGSTYYADSVKWRFTISRDNAKNTVYLQMNSLIPEDTSVYYCATVGKQKYDAKYGYWGQGTQVTVSS,high polyreactivity
5,QVQLVESGGGLVQAGGSLRLSCAASGSIFDNYAMGWYRQAPGKEREFDAGISWSGGSTRYADSVKGRFTISRDNAKNTVYLQMNSLKPEDTAVYYCNTGYGLVDFLYGYYYWGQGTQVTVSS,low polyreactivity
6,QVQLVESGGGLVQAGGSLRLSCAASGSIFDPNAMGWYRKALGKERELVAAITYSGVDTYYADSVKGRFTISLDNAKNTVYLQMNILKPEDTAVYFCAGDNGRVGYDYWGQGTQVTVSS,low polyreactivity
7,QVQLVESGGGLVQAGGSLRLSCAASGSIFDPYTMGWYRHEPGKESELVAAINWSGGSTYYADSVKGRFTISRENAKYTVYLQMNSLKPEDTAVYYCNADLTSYYEEDERNDDDYWGQGTQVTVSS,low polyreactivity
8,QVQLVESGGGLVQAGGSLRLSCAASGSIFDRYAMGWYRQAPGKERELVAAISTDGTRTYYADSVKGRFTISRDNAKNTVYLQMNSLKPEDTAVYYGAKYWRSNYYYWGQGTQVTVSS,high polyreactivity
9,QVQLVESGGGLVQAGGSLRLSCAASGSIFDSNAMGWYRQAPGKERELVAAITVSGGDTYYADSVKGRFTISRDNAKNTVYLQMISLKPEDTAVYYCAKQWFTYPYYYWGQGSQVTVSS,high polyreactivity
10,QVQLVESGGGLVQAGGSLRLSCAASGSIFDSYAMGWYRQAPGKERELVADITSDGSTHYADSEKGRFRISRDNAKNTVYLQMNSLKPEDTAVYYCAADYFFYLLGVPVVDVYYWGQGTQVTVSS,low polyreactivity
11,QVQLVESGGGLVQAGGSLRLSCAASGSIFDSYAMGWYRQAPGKERELVASISYRGGSTYYADSVKGRFTISRDNAKNTVYLQMNSLKPEDTAVYYCAATPGYHYRSWRYYYWGQGTQVTVSS,high polyreactivity
12,QVQLVESGGGLVQAGGSLRLSCAASGSIFDVNAMGRYRQAPGKERELVAAISQRGTRTYYADSVKGRFTISRDNAKNTVYLQLNSLKPEDTAVYYCNRGGWRQYDSWGQGTQVTVSS,high polyreactivity
13,QVQLVESGGGLVQAGGSLRLSCAASGSIFDVNAMGWYRPAPGKERELVAAISDSGGSTYYADSVKGRFTISRDTAKNTVYLQMNSLKPEDTAVYYCNADWSWYNYYDFDYWGQGTQVTVSS,low polyreactivity
14,QVQLVESGGGLVQAGGSLRLSCAASGSIFDVNAMGWYRQAPGKERELVAAISDSGGSTYYADSVKGRFTISRDNAKNTVYLQMNSLKPEDTAVYYCNADWSWYNYYDLDYWGQGTQVTVSS,low polyreactivity
15,QVQLVESGGGLVQAGGSLRLSCAASGSIFDVNAMGWYRQAPGKERELVAAISQRGTRTYYADSVKGRFTISRDYAKNTVYLQMNSLTPEDTAVYYCNRGGWRQYDSWGQGTQVTVSS,high polyreactivity
16,QVQLVESGGGLVQAGGSLRLSCAASGSIFDVNTMGWYRQAPGKERELVASITSSGSTYYADSVKGRFTISRDNAKNTVYLQMNSLKPEDTAVYYCAAASGGTVVGEGDYWGQGSQVTVSS,low polyreactivity
17,QVQLVESGGGLVQAGGSLRLSCAASGSIFDVYAMGWYRPAPGKERELVATISYGDSSTYYADSVKGRFTISRDNAKNTVYFQMNSLKPEDTAVYYCAADYLTAPRWRLLGEMEYWGQGTQVTVSS,low polyreactivity
18,QVQLVESGGGLVQAGGSLRLSCAASGSIFDVYAMGWYRQAPGKERELVARITWSGGSTYYADSVKGRFTISRDNAKNTVYLQMTSLKPEDTAVYYCNVDQVHPTRGLDYWGQGTQVTVSS,low polyreactivity
19,QVQLVESGGGLVQAGGSLRLSCAASGSIFDWYAMGWYRQAPGKEGELVAAISSGDSTYYADSVKGRFTISRDNAKNTVYLQMNSLKPEYTAVYYCAAVTKLSGIRYNYWGQGTQVTVSS,low polyreactivity
20,QVQLVESGGGLVQAGGSLRLSCAASGSIFDYNAKGWYRPAPGKERELVASISGDSGSTYYADSVKGRFTISRDNAKNTVYLQMNSLKPEDTAVYYCAAPYVSWDYRYYYWGQGTQVTVSS,low polyreactivity
21,QVQLVESGGGLVQAGGSLRLSCAASGSIFDYNAMGWYRQAPGKERELVAAISGSGVRTYYADSVKGRFTISRDNAKNTVYLQMNSLKPEDTAVYYCAAAVGRPRREYDYWGQGTQVTVSS,high polyreactivity
22,QVQLVESGGGLVQAGGSLRLSCAASGSIFDYNAMGWYRQAPGKERELVAAISSGGSTNYADSVKGRFTISRDNAKNTVYLQMNSLKPEDTAVYYCNTGLYWLGYWPDDYWGQGTQVTVSS,low polyreactivity
23,QVQLVESGGGLVQAGGSLRLSCAASGSIFDYNAMGWYRQAPGKERELVAAISVNGGNTYYADSVKGRFTISRDNAKNTVYLQMNSLKPEDTAVYYCAADSYGGSKYDYWGQGTQVTVSS,low polyreactivity
24,QVQLVESGGGLVQAGGSLRLSCAASGSIFDYNAMGWYRQAPGKERELVASIRWSGGRTYYADSVKGRFTISRDNAKNTVYLQMNSLKPEDTAVYYCNKGLFSTGNIPYYLIVYLEYNYWGQGTQVTVSS,low polyreactivity
25,QVQLVESGGGLVQAGGSLRLSCAASGSIFDYNAMGWYRQAPGKEREYVAANTWGSGSTYYADSVKGRFTNSRDNAKNTVYLQMNSLKPEDTAVYYCNADDYGGSTGRKGRYNYWGQGTQVTVSS,low polyreactivity
26,QVQLVESGGGLVQAGGSLRLSCAASGSIFDYNGMGWYRQAPGKERELVATITLSTARTYYADSVKGRFTISRDNAKNTVYLQMNSLKPEDTAVYYCATRYPKFRRRNYWGQGTQVTVSS,high polyreactivity
27,QVQLVESGGGLVQAGGSLRLSCAASGSIFDYYAMGWYRQAPGKERELVAAISRSGSRTYYADSVKGRFTISRDNAKNTVYLQMNSLKPEDTAVYYCNAYLTLPYSNHAYYYWGQGTQVTVSS,high polyreactivity
28,QVQLVESGGGLVQAGGSLRLSCAASGSIFDYYAMGWYRQAPGKERELVASINSSGTGTFYADSVKGRFTISRDNAKNTVYLQMNSLKPEDTAVYSCATRQAVGYSSGRGYGYWGQGTQVTVSS,low polyreactivity
29,QVQLVESGGGLVQAGGSLRLSCAASGSIFDYYAMGWYRQAPGKERELVASITWSGGRTSYADSVKGRFTISRDNAKNTVYLQMNSLKPEDSAVYYCAAKLWSYAYQHKRVWYYYWGQGTQVTVSS,high polyreactivity
30,QVQLVESGGGLVQAGGSLRLSCAASGSIFDYYAMGWYRQAPGKERELVATISGGGGTTYYADSVKGRFTISRDNAKNTVYLQMNSLKPEDTAVYYCAAVSLGYNYWGQGTQVTVSS,low polyreactivity
